Where no end group is shown, it is not given here. [ ]: non-standard residue; d: D form. Cha = N[C@@H](CC1CCCCC1)C(=O)O

From patent US8859492 come the findings set out here.

Assay [1] has as its target HCV protease (hepatitis C virus). Nature of the assay: affinity of metallopeptide for HCV protease; method not described.
The target of assay [2] is Recombinant human somatic ACE (sACE-1: Leu30-Leu1261, with C-terminal His tag) (human) (UniProt P12821). The assay is described as follows: cell-based or functional assay.
Assay [3] shares this target. The assay is described as follows: affinity based on the IC50 of sACE-1 inhibition (fluorogenic substrate cleavage).

Chain of Recombinant human somatic ACE (sACE-1: Leu30-Leu1261, with C-terminal His tag) (human) (P12821 30-1261 limits assumed): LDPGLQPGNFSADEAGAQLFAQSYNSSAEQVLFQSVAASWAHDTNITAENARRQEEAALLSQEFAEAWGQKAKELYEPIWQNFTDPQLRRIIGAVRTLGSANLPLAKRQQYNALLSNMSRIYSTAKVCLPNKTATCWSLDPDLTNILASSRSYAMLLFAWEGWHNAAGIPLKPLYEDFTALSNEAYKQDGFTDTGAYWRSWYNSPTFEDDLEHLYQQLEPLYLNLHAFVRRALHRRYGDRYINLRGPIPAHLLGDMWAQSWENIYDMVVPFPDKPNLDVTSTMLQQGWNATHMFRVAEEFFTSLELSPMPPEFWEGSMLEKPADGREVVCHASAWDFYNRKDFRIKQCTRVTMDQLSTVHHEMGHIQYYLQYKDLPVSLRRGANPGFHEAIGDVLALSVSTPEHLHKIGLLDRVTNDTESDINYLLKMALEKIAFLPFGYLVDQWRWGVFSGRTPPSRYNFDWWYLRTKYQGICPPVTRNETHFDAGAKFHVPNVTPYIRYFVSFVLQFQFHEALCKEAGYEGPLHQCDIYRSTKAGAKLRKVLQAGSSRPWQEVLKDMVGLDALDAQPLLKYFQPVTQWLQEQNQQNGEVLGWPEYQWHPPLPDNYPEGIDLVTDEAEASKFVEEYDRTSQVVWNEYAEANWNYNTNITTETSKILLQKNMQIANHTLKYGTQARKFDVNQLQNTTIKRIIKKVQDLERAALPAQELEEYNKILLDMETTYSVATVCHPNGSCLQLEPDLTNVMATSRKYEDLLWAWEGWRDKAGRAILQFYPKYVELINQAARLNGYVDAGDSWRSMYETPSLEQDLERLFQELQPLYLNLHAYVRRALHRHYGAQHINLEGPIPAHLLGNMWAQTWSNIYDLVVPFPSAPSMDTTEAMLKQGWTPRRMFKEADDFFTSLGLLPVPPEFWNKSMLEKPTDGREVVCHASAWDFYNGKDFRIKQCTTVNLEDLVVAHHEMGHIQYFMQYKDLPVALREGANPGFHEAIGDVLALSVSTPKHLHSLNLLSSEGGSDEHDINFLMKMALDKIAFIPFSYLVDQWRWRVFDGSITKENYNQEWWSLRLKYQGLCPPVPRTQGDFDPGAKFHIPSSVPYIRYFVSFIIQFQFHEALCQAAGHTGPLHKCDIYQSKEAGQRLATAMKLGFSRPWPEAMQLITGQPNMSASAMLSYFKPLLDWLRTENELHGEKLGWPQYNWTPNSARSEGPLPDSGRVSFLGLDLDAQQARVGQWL

GGHD[dE]LI[Cha]CP[Cha]DL returned an affinity in assay [1] of 0.01 µM.

On to Co-GGH-lisinopril (peptide), for which, in assay [2], the IC50 of sACE-1 inhibition (cleavage of fluorogenic substrate) came out at 0.09 µM and the second order rate constant for inactivation of sACE-1, ascorbate + H2O2 was determined as 1170 M⁻¹ s⁻¹. For the same substance, the Ka in assay [3] is 1.11e+07 M⁻¹.

On to Cu-GGH-lisinopril (peptide), for which, in assay [2], the IC50 of sACE-1 inhibition (cleavage of fluorogenic substrate) amounted to 1.47 µM; the second order rate constant for inactivation of sACE-1, H2O2 was 467 M⁻¹ s⁻¹; the second order rate constant for inactivation of sACE-1, ascorbate was 1700 M⁻¹ s⁻¹; the second order rate constant for inactivation of sACE-1, ascorbate + H2O2 amounted to 2530 M⁻¹ s⁻¹. Moreover, the Ka in assay [3] is 680000 M⁻¹.

Regarding “Ni-GGH (M-chelate without lisinopril) (peptide)”, the second order rate constant for inactivation of sACE-1, ascorbate in assay [2] is below 83.3 M⁻¹ s⁻¹.

Substance GGHDEMEEC (SEQ ID NO: 71) showed an affinity in assay [1] of 48 µM.

On to [Cu-GGH]^1- (peptide), for which, in assay [2], the IC50 of sACE-1 inhibition (cleavage of fluorogenic substrate) worked out at 17 µM; the second order rate constant for inactivation of sACE-1, H2O2 was below 33.3 M⁻¹ s⁻¹; the second order rate constant for inactivation of sACE-1, ascorbate was below 16.7 M⁻¹ s⁻¹; the second order rate constant for inactivation of sACE-1, ascorbate + H2O2 stood at 167 M⁻¹ s⁻¹.

Regarding Ni-GGH-lisinopril (peptide), in assay [2], the IC50 of sACE-1 inhibition (cleavage of fluorogenic substrate) stood at 0.15 µM and the second order rate constant for inactivation of sACE-1, ascorbate was 500 M⁻¹ s⁻¹. The Ka in assay [3] stood at 6.67e+06 M⁻¹.

As for “Co-GGH (M-chelate without lisinopril) (peptide)”, in assay [2], the second order rate constant for inactivation of sACE-1, ascorbate + H2O2 was below 333 M⁻¹ s⁻¹.
